B1: GpH7-A5/GpH7-B3 variant T335_14T/GpL16-k0 (antibody, human IgG1, kappa)
heavy 1: not shown
heavy 2: not shown
light: DIVMTQSPLSLPVTPGEPASISCQASESLVHSNRNTYLHWYLQKPGQSPQLLIYKVSNRFSGVPDRFSGSGSGTDFTLKISRVEAEDVGVYYCSQNTHVPPTFGQGTKVEIERTVAAPSVFIFPPSDEQLKSGTASVVCLLNNFYPREAKVQWKVDNALQSGNSQESVTEQDSKDSTYSLSSTLTLSKADYEKHKVYACEVTHQGLSSPVTKSFNRGEC
B2: GpH7-A5/GpH7-B3 variant E269_18N/GpL16-k0 (antibody, human IgG1, kappa)
heavy 1: not shown
heavy 2: not shown
light: B1 light
notes: copies: 1 + 1 + 2
B3: GpH7-A5/GpH7-B3 variant D270_13S/GpL16-k0 (antibody, human IgG1, kappa)
heavy 1: not shown
heavy 2: not shown
light: B1 light
notes: copies: 1 + 1 + 2
B4: GpH7-A5/GpH7-B3 variant A327_06M/GpL16-k0 (antibody, human IgG1, kappa)
heavy 1: not shown
heavy 2: not shown
light: B1 light
notes: copies: 1 + 1 + 2
B5: GpH7-A5/GpH7-B3 variant A327_20W/GpL16-k0 (antibody, human IgG1, kappa)
heavy 1: not shown
heavy 2: not shown
light: B1 light
notes: copies: 1 + 1 + 2
B6: GpH7-A5/GpH7-B3 variant D270_08L/GpL16-k0 (antibody, human IgG1, kappa)
heavy 1: not shown
heavy 2: not shown
light: B1 light
notes: copies: 1 + 1 + 2
B7: GpH7-A5/GpH7-B3 variant E269_19Q/GpL16-k0 (antibody, human IgG1, kappa)
heavy 1: not shown
heavy 2: not shown
light: B1 light
notes: copies: 1 + 1 + 2
B8: GpH7-A5/GpH7-B3 variant A330_01G/GpL16-k0 (antibody, human IgG1, kappa)
heavy 1: not shown
heavy 2: not shown
light: B1 light
notes: copies: 1 + 1 + 2
B9: GpH7-A5/GpH7-B3 variant E333_07I/GpL16-k0 (antibody, human IgG1, kappa)
heavy 1: not shown
heavy 2: not shown
light: B1 light
notes: copies: 1 + 1 + 2
B10: GpH7-A5/GpH7-B3 variant D270_14T/GpL16-k0 (antibody, human IgG1, kappa)
heavy 1: not shown
heavy 2: not shown
light: B1 light
notes: copies: 1 + 1 + 2
B11: GpH7-A5/GpH7-B3 variant E333_05P/GpL16-k0 (antibody, human IgG1, kappa)
heavy 1: not shown
heavy 2: not shown
light: B1 light
notes: copies: 1 + 1 + 2
B12: GpH7-A5/GpH7-B3 variant E333_09D/GpL16-k0 (antibody, human IgG1, kappa)
heavy 1: not shown
heavy 2: not shown
light: B1 light
notes: copies: 1 + 1 + 2
B13: GpH7-A5/GpH7-B3 variant E269_07I/GpL16-k0 (antibody, human IgG1, kappa)
heavy 1: not shown
heavy 2: not shown
light: B1 light
notes: copies: 1 + 1 + 2
B14: GpH7-A5/GpH7-B3 variant E333_08L/GpL16-k0 (antibody, human IgG1, kappa)
heavy 1: not shown
heavy 2: not shown
light: B1 light
notes: copies: 1 + 1 + 2
B15: GpH7-A5/GpH7-B3 variant E269_14T/GpL16-k0 (antibody, human IgG1, kappa)
heavy 1: not shown
heavy 2: not shown
light: B1 light
notes: copies: 1 + 1 + 2
B16: GpH7-A5/GpH7-B3 variant A327_01G/GpL16-k0 (antibody, human IgG1, kappa)
heavy 1: not shown
heavy 2: not shown
light: B1 light
notes: copies: 1 + 1 + 2
B17: GpH7-A5/GpH7-B3 variant A330_03V/GpL16-k0 (antibody, human IgG1, kappa)
heavy 1: not shown
heavy 2: not shown
light: B1 light
notes: copies: 1 + 1 + 2
B18: GpH7-A5/GpH7-B3 variant A330_05P/GpL16-k0 (antibody, human IgG1, kappa)
heavy 1: not shown
heavy 2: not shown
light: B1 light
notes: copies: 1 + 1 + 2
B19: GpH7-A5/GpH7-B3 variant A330_07I/GpL16-k0 (antibody, human IgG1, kappa)
heavy 1: not shown
heavy 2: not shown
light: B1 light
notes: copies: 1 + 1 + 2
B20: GpH7-A5/GpH7-B3 variant A330_04F/GpL16-k0 (antibody, human IgG1, kappa)
heavy 1: not shown
heavy 2: not shown
light: B1 light
notes: copies: 1 + 1 + 2
B21: GpH7-A5/GpH7-B3 variant E333_12R/GpL16-k0 (antibody, human IgG1, kappa)
heavy 1: not shown
heavy 2: not shown
light: B1 light
notes: copies: 1 + 1 + 2
B22: GpH7-A5/GpH7-B3 variant A330_12R/GpL16-k0 (antibody, human IgG1, kappa)
heavy 1: not shown
heavy 2: not shown
light: B1 light
notes: copies: 1 + 1 + 2
B23: GpH7-A5/GpH7-B3 variant E269_01G/GpL16-k0 (antibody, human IgG1, kappa)
heavy 1: not shown
heavy 2: not shown
light: B1 light
notes: copies: 1 + 1 + 2
B24: GpH7-A5/GpH7-B3 variant A327_19Q/GpL16-k0 (antibody, human IgG1, kappa)
heavy 1: not shown
heavy 2: not shown
light: B1 light
notes: copies: 1 + 1 + 2
B25: GpH7-A5/GpH7-B3 variant E333_01G/GpL16-k0 (antibody, human IgG1, kappa)
heavy 1: not shown
heavy 2: not shown
light: B1 light
notes: copies: 1 + 1 + 2
B26: GpH7-A5/GpH7-B3 variant E333_03V/GpL16-k0 (antibody, human IgG1, kappa)
heavy 1: not shown
heavy 2: not shown
light: B1 light
notes: copies: 1 + 1 + 2
B27: GpH7-A5/GpH7-B3 variant D270_07I/GpL16-k0 (antibody, human IgG1, kappa)
heavy 1: not shown
heavy 2: not shown
light: B1 light
notes: copies: 1 + 1 + 2
B28: GpH7-A5/GpH7-B3 variant A330_19Q/GpL16-k0 (antibody, human IgG1, kappa)
heavy 1: not shown
heavy 2: not shown
light: B1 light
notes: copies: 1 + 1 + 2
B29: GpH7-A5/GpH7-B3 variant A327_10E/GpL16-k0 (antibody, human IgG1, kappa)
heavy 1: not shown
heavy 2: not shown
light: B1 light
notes: copies: 1 + 1 + 2
B30: GpH7-A5/GpH7-B3 variant E333_02A/GpL16-k0 (antibody, human IgG1, kappa)
heavy 1: not shown
heavy 2: not shown
light: B1 light
notes: copies: 1 + 1 + 2

The binders below were run against T1, FcγRIIIa (human, UniProt P08637 17-208) (assay: SPR (Biacore);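 note: antibody variants captured on an SPR sensor chip, with FcγRIIIa passed over as analyte in HBS-EP+ buffer at 25 °C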).
T1 construct: extracellular domain; also called 3a; FcγRIIIa extracellular domain
T1 sequence (P08637 other isoform, or with tags, fused parts or gaps): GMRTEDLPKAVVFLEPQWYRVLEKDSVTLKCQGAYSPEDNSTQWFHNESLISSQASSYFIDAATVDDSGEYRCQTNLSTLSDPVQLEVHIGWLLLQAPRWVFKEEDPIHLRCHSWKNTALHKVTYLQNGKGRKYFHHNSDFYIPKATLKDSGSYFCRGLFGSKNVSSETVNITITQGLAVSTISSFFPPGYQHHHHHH

Row | Binder | He/Con 3a
1 | B1 | 104 % of GpH7-A5/GpH7-B3/GpL16-k0
2 | B2 | 57.2 % of GpH7-A5/GpH7-B3/GpL16-k0
3 | B3 | 51.4 % of GpH7-A5/GpH7-B3/GpL16-k0
4 | B4 | 54 % of GpH7-A5/GpH7-B3/GpL16-k0
5 | B5 | 52.6 % of GpH7-A5/GpH7-B3/GpL16-k0
6 | B6 | 65.1 % of GpH7-A5/GpH7-B3/GpL16-k0
7 | B7 | 64.3 % of GpH7-A5/GpH7-B3/GpL16-k0
8 | B8 | 87.3 % of GpH7-A5/GpH7-B3/GpL16-k0
9 | B9 | 100 % of GpH7-A5/GpH7-B3/GpL16-k0
10 | B10 | 55.4 % of GpH7-A5/GpH7-B3/GpL16-k0
11 | B11 | 100 % of GpH7-A5/GpH7-B3/GpL16-k0
12 | B12 | 115 % of GpH7-A5/GpH7-B3/GpL16-k0
13 | B13 | 55.3 % of GpH7-A5/GpH7-B3/GpL16-k0
14 | B14 | 102 % of GpH7-A5/GpH7-B3/GpL16-k0
15 | B15 | 59.7 % of GpH7-A5/GpH7-B3/GpL16-k0
16 | B16 | 74.4 % of GpH7-A5/GpH7-B3/GpL16-k0
17 | B17 | 98.8 % of GpH7-A5/GpH7-B3/GpL16-k0
18 | B18 | 152 % of GpH7-A5/GpH7-B3/GpL16-k0
19 | B19 | 101 % of GpH7-A5/GpH7-B3/GpL16-k0
20 | B20 | 144 % of GpH7-A5/GpH7-B3/GpL16-k0
21 | B21 | 92.2 % of GpH7-A5/GpH7-B3/GpL16-k0
22 | B22 | 77.3 % of GpH7-A5/GpH7-B3/GpL16-k0
23 | B23 | 61.6 % of GpH7-A5/GpH7-B3/GpL16-k0
24 | B24 | 54 % of GpH7-A5/GpH7-B3/GpL16-k0
25 | B25 | 101 % of GpH7-A5/GpH7-B3/GpL16-k0
26 | B26 | 106 % of GpH7-A5/GpH7-B3/GpL16-k0
27 | B27 | 63.1 % of GpH7-A5/GpH7-B3/GpL16-k0
28 | B28 | 86.3 % of GpH7-A5/GpH7-B3/GpL16-k0
29 | B29 | 70.5 % of GpH7-A5/GpH7-B3/GpL16-k0
30 | B30 | 108 % of GpH7-A5/GpH7-B3/GpL16-k0

From patent publication US20260167699A1 (Chugai, published 2026)
